The values that follow come from US20070026475A1.

In this test the target is 4G10 anti-phosphotyrosine monoclonal antibody (Upstate Biotechnology). Put plainly: fluorescence polarization competition; competitor of the fluorescent pp60c-src phosphopeptide.

With “unphosphorylated peptide (same sequence as the pp60c-src C-terminal phosphoregulatory peptide) (from UniProt P12931 524-536)”, the total shift in polarization was less than 10 mP.
